Assays:
[1] = system: tau in brain fractions of rTg4510 mice overexpressing human tau with P301L mutation; experiment: Western and dot blot, rTg4510 mouse brain; type: binding, human tau in rTg4510 mouse; settings: C5.2 1 µg/mL overnight 4 °C, 24 weeks old mice
From the text: rTg4510, tTA and non-Tg littermate F1 mice were bred at Taconic, Denmark. Mice expressing the tTA activator transgenes were maintained on 129S6 background strain (Taconic) and mutant tau responder mice were maintained in the FVB/NCrl background strain (Taconic). Mice were screened by PCR using the following primer pairs [NT] and [NT] for the tTA activator transgene and [NT] and [NT] for the mutant tau responder transgene. rTg4510, tTA and non-Tg littermates were group-housed (5 animals/cage) and received water and food ad libitum (Brogaarden, Denmark) as well as environmental enrichment. The light/dark cycle was 12 hours; room temperature was 21 ± 2 °C and a relative humidity of 55% ± 5%. All animal experiments were performed in accordance with the European Communities Council Directive #86/609, the directives of the Danish National Committee on Animal Research Ethics, and Danish legislation on experimental animals (license no. 2014-15-0201-00339). Mice were euthanized by cervical dislocation. Brains were quickly removed, weighed and divided sagittally down the midline to yield two hemispheres. […] Tau and pTau levels were assessed in the samples using 1 μg/mL C5.2 overnight at 4 °C. A secondary fluorophore conjugated IgG antibody was used (IRDye 680 Goat anti-mouse, LICOR biosciences) and the signal was quantified using Odyssey CLx and Image studio software (LI-COR biosciences). […]

[2] = system: FITC-conjugated tau peptide pS396; experiment: Fluorescence polarization direct binding, pS396 peptide
Method: (§1) FITC-labeled peptides used in fluorescence polarization experiments were synthesized by Biomatik (Cambridge, ON, Canada). Fab C5.2 affinity was determined using a fluorescence polarization-based direct binding assay with fluorescein isothiocyanate (FITC)-conjugated peptides (Table 1). The FITC-peptide concentration was kept constant at 300 nM while Fab C5.2 was serially diluted from 675 nM to 0.08 nM. Data was collected at 25 °C using excitation and emission wavelengths of 485 nm and 535 nm, respectively. Each experiment was done in a single 96-well plate and calculated in triplicate (buffer: 50 mM Tris, 100 mM NaCl, 0.1% pluronic F-127). The experiments were performed with a DTX 880 Multimode Detector (Beckman Coulter, Jersey City, NJ). Fluorescence data was reduced using multimode detection software and KD values were calculated in GraphPad Prism 7.0 using a nonlinear regression model.
(§2) To accurately measure the C5.2 binding affinity, we performed fluorescence polarization experiments to determine dissociation constants (KD), using the Fab C5.2 and four differentially phosphorylated FITC-conjugated peptides (Table 1). The peptide concentration was kept constant while that of Fab C5.2 was serially diluted from 675 nM to 0.08 nM (Fig. 1d). […] In comparison with a […] IgG molecule, each Fab fragment contains a single binding site so the KD was calculated using a nonlinear model.

[3] = target: FITC-conjugated tau peptide pS396/pS404; experiment: Fluorescence polarization direct binding, pS396/pS404 peptide; settings: restated in Discussion; fluorescence polarization, Fab C5.2
Method: as §1, §2

B1: C5.2: novel mouse monoclonal antibody that targets the pS396 tau epitope region (antibody, V domains shown)
VH: QVQLQQSDAELVKPGASVKISCKASGYTFTDRTIHWVKQRPEQGLEWIGYIYPGDDSTKYNDMFKAKATLTADKSSNTAYMQLNSLTSDDSAVYFCARRGTMDYWGQGTSVTVSS
VL: DVQMIQSPSSLSASLGDIVTMTCQASQDTSINLNWFQQKPGKAPKLLIYGASNLEDGVPSRFSGSRYGTDFTLTISSLEDEDMATYFCLQHTYLPFTFGSGTKLEIK
[1]; sarkosyl-insoluble P3
  Binding to insoluble tau fraction (P3): binds predominantly to an insoluble tau fraction (P3)
[1]; soluble S1
  Reactivity to soluble tau fraction (S1): also has reactivity to a soluble tau fraction (S1)
[2]; Discussion, ELISA and fluorescence polarization
  Phosphorylation state-specificity: phosphorylation state-specific with nanomolar affinity
[2]; both experiments (ELISA and fluorescence polarization)
  Phospho-specificity: phospho-specificity for pS396
[2]; restated in Discussion, fluorescence polarization, Fab C5.2
  Kd: 14.9 nM
[3]
  Kd: 15.4 nM

Reference: publication PMC5906480, “Tau Antibody Structure Reveals a Molecular Switch Defining a Pathological Conformation of the Tau Protein” (Scientific Reports, 2018)
